Test results: the supplement of paper PMC10065799, “High-throughput profiling of sequence recognition by tyrosine kinases and SH2 domains using bacterial peptide display” (eLife, 2023)

Columns and labels:
EPHB1 = EPHB1 (UniProt P54762); assay: phosphorylation enrichment, bacterial display (enrichment ratio); higher = better substrate or ligand; peptides without Tyr show the background
c-Src = assay: as above
Fes = Fes (UniProt P07332); assay: as above
c-Abl (mouse) = assay: as above
FGFR3 = FGFR3 (UniProt P22607); assay: as above
FGFR1 = FGFR1 (UniProt P11362); assay: as above
Fer (mouse) = assay: as above
EPHB2 = EPHB2 (UniProt P29323); assay: as above
Jak2 = Jak2 (UniProt O60674); assay: as above
MERTK = MERTK (UniProt Q12866); assay: as above
AncSZ = assay: as above
Hck = Hck (UniProt P08631); assay: as above
Fyn = Fyn (UniProt P06241); assay: as above
SHP2-C SH2 = assay: SH2 binding enrichment of the phosphorylated peptide, bacterial display (enrichment ratio); higher = better substrate or ligand; peptides without Tyr show the background
Grb2 SH2 = Grb2 SH2 (UniProt P62993); assay: as above
c-Src SH2 = assay: as above
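Throughout, for SH2 binding enrichment of the phosphorylated peptide, bacterial display: peptide library displayed on the E. coli surface as eCPX fusions, selected cells deep-sequenced, score is each peptide's frequency after selection divided by its frequency in the input.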
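Throughout, for phosphorylation enrichment, bacterial display: 11-residue human phosphosite peptides and single-mutation variants displayed on the E. coli surface, counted by deep sequencing, each peptide's frequency after selection divided by its frequency in the unselected input library; frequency after pTyr selection over input frequency; kinase dosed for 20-30% of maximal phosphorylation in three min.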

Hck, sequence (P08631 whole entry, looked up): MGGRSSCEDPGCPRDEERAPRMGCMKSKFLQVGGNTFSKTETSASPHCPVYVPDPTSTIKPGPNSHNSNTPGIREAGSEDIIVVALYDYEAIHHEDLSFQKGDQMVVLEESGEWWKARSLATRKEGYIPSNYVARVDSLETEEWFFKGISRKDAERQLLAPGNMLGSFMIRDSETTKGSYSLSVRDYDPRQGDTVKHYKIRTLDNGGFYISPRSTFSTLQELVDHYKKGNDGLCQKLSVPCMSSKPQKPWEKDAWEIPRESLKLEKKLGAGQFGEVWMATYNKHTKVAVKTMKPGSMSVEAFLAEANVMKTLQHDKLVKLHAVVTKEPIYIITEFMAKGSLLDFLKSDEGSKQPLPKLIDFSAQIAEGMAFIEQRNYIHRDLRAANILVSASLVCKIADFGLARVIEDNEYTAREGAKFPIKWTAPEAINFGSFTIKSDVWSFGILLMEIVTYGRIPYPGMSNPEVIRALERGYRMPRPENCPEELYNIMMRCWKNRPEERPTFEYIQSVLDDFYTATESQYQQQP
MERTK, sequence (Q12866 whole entry, looked up): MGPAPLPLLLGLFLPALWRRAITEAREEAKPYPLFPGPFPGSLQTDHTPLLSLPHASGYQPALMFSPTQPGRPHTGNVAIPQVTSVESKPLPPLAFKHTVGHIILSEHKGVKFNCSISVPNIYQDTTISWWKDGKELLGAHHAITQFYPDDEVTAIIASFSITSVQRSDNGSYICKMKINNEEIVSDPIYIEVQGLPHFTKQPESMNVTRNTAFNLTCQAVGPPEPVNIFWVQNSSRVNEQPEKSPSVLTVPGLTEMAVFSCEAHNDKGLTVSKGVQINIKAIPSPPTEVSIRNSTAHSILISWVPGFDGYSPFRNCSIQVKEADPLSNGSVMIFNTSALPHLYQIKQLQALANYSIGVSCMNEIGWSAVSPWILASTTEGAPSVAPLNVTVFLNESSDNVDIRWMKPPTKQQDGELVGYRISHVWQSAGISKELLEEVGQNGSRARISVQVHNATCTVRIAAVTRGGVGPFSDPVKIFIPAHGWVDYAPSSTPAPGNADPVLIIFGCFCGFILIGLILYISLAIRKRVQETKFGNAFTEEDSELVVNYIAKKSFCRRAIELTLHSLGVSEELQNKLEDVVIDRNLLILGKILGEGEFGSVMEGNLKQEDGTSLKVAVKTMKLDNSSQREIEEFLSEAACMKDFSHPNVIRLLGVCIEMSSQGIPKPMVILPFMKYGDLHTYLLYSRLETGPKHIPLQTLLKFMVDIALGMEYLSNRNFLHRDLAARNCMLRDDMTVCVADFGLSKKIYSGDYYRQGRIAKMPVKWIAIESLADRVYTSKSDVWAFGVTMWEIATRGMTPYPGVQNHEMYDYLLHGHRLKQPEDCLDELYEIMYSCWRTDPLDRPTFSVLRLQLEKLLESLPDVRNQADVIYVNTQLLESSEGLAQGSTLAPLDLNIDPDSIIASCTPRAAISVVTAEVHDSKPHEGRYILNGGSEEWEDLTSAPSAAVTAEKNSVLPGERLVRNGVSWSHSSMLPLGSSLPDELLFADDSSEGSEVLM
Fyn, sequence (P06241 whole entry, looked up): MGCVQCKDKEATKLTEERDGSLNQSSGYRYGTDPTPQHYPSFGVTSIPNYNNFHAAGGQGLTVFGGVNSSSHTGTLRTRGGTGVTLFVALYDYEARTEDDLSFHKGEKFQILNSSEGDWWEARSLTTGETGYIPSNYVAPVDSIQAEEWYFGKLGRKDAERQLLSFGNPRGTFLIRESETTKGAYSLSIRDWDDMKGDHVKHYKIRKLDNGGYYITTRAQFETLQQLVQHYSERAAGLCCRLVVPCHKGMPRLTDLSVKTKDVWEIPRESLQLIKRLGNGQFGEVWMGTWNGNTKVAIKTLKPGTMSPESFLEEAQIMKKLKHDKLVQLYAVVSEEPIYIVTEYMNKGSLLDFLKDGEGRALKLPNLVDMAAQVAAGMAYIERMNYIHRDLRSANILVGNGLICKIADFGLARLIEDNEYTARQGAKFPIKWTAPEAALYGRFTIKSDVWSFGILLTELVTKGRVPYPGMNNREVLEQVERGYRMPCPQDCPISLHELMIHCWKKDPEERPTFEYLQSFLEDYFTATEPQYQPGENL
EPHB1, sequence (P54762 whole entry, looked up): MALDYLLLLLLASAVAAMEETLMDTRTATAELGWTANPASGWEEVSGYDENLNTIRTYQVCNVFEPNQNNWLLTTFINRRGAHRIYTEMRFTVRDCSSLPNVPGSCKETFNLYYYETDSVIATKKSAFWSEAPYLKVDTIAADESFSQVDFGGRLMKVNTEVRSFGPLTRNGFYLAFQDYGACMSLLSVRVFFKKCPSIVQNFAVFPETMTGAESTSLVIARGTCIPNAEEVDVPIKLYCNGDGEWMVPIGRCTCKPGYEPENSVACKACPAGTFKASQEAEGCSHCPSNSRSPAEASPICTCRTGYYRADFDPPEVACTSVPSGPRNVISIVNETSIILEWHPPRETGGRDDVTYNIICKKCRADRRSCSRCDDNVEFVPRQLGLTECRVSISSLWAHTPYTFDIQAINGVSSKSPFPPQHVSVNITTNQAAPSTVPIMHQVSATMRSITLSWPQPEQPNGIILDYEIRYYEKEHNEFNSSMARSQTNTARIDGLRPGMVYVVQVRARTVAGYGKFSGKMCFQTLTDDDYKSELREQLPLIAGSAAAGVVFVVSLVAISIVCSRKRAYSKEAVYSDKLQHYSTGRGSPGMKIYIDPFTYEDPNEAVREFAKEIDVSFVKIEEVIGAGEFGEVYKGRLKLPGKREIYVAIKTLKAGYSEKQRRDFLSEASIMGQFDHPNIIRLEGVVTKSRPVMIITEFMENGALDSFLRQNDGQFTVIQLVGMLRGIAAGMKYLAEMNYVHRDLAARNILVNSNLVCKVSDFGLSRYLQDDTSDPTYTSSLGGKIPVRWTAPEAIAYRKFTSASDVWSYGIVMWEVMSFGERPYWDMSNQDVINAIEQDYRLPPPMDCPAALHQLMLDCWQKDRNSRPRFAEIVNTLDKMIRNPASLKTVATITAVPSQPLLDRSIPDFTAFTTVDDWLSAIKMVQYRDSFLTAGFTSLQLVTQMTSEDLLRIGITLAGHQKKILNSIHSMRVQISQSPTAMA
EPHB2, sequence (P29323 whole entry, looked up): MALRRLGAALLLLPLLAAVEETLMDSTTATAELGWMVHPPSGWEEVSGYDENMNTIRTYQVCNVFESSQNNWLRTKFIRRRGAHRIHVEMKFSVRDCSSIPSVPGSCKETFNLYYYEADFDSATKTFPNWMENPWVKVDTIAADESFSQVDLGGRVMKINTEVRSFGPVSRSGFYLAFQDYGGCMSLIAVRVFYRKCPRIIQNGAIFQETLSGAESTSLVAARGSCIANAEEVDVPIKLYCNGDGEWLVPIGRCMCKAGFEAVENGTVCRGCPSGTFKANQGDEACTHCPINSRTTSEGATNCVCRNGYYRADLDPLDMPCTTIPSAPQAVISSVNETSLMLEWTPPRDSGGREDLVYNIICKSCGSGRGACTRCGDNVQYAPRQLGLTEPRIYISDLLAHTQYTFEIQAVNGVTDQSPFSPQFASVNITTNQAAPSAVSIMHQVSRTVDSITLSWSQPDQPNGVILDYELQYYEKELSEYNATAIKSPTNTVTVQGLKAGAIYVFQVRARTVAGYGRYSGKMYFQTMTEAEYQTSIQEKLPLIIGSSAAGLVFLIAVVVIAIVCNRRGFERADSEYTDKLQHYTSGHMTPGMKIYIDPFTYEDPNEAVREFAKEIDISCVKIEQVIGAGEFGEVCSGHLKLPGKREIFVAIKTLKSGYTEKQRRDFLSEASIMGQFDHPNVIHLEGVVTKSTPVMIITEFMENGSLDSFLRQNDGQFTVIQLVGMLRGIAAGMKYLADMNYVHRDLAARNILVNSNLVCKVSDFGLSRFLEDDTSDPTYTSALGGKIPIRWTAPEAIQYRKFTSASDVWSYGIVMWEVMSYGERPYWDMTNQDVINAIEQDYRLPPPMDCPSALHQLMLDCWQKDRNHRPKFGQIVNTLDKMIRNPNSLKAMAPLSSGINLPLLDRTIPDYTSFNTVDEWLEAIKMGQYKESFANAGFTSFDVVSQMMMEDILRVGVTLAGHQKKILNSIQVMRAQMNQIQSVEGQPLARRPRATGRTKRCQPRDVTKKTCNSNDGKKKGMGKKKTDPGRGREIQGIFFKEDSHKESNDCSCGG
Fes, sequence (P07332 whole entry, looked up): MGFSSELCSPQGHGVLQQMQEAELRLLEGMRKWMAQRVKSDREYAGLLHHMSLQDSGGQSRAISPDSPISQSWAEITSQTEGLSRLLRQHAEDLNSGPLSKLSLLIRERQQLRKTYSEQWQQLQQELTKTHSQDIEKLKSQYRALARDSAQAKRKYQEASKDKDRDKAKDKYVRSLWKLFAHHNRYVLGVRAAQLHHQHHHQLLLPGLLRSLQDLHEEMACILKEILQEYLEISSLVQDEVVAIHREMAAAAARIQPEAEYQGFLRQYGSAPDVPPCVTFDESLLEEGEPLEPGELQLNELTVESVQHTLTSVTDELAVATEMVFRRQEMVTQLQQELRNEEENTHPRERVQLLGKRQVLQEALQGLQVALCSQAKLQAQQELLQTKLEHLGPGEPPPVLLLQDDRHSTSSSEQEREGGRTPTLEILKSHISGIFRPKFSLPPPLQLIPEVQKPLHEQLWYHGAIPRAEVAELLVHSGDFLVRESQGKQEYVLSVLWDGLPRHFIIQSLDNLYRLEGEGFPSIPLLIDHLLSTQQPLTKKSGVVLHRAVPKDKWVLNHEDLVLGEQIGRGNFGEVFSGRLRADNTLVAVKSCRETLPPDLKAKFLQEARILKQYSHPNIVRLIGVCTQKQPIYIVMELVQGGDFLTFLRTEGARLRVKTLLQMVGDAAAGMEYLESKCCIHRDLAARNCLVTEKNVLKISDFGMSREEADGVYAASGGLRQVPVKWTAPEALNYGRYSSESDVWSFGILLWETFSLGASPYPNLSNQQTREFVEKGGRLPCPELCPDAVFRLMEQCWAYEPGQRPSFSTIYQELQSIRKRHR

Sequence | SH2 binding enrichment (SHP2-C SH2) | SH2 binding enrichment (Grb2 SH2) | SH2 binding enrichment (c-Src SH2) | phosphorylation enrichment (EPHB1) | phosphorylation enrichment (c-Src) | phosphorylation enrichment (Fes) | phosphorylation enrichment (c-Abl (mouse)) | phosphorylation enrichment (FGFR3) | phosphorylation enrichment (FGFR1) | phosphorylation enrichment (Fer (mouse)) | phosphorylation enrichment (EPHB2) | phosphorylation enrichment (Jak2) | phosphorylation enrichment (MERTK) | phosphorylation enrichment (AncSZ) | phosphorylation enrichment (Hck) | phosphorylation enrichment (Fyn)
VKANTYENFWP [GATM_Y100_K102N_YF] | 1.58 | 12.5 | 2.84 | 3.6 | 4.08 | 1.04 | 0.904 | 0.661 | 0.415 | 2.02 | 2.03 | 0.954 | 3.58 | 0.926 | 2.1 | 3.61
DLVLQYLRVPL [F9_Y371_A366D] | 1.23 | 1.47 | 0.776 | 0.489 | 0.46 | 1.13 | 0.617 | 0.757 | 0.528 | 0.435 | 0.525 | 3.15 | 0.404 | 1.09 | 0.469 | 0.518
TFEYRYLEDRD [CNOT3_Y746] | 0.81 | 0.76 | 1.01 | 0.623 | 0.537 | 1.35 | 0.827 | 0.848 | 0.935 | 0.472 | 0.504 | 1.02 | 0.493 | 1.16 | 0.534 | 0.545
KKRSVYIKVLF [CC2D2A_Y683_L684I] | 0.646 | 1.1 | 0.548 | 0.411 | 0.304 | 0.954 | 0.644 | 0.515 | 0.457 | 0.451 | 0.396 | 0.798 | 0.335 | 0.99 | 0.363 | 0.392
LASLIYNFVLF [AQP6_Y231] | 0.989 | 1.11 | 0.692 | 1.93 | 7.23 | 2.2 | 4.1 | 3.34 | 3.53 | 14.5 | 4.52 | 1.51 | 7.85 | 1.73 | 5.89 | 7.62
RAHARYCADAC [ACOT4_Y52_R57C] | 0.898 | 0.915 | 0.872 | 0.402 | 0.41 | 0.677 | 0.889 | 0.395 | 0.436 | 0.518 | 0.499 | 0.61 | 0.437 | 0.601 | 0.45 | 0.344
SENAFYLSPHI [COL6A3_Y2827_D2831H] | 0.606 | 0.776 | 0.461 | 0.576 | 0.491 | 0.887 | 1.96 | 0.693 | 0.653 | 0.775 | 0.573 | 3.25 | 0.696 | 1.26 | 0.863 | 0.487
GGGCGYNRSSG [FUS_Y232_G230C] | 0.632 | 0.802 | 0.531 | 0.392 | 0.435 | 0.717 | 0.815 | 0.465 | 0.448 | 0.434 | 0.426 | 0.701 | 0.412 | 0.663 | 0.42 | 0.422
GIVEDYRPRFF [ACVRL1_Y421_P424R_YF] | 0.832 | 0.985 | 0.468 | 0.616 | 0.459 | 0.814 | 0.681 | 0.655 | 0.467 | 0.513 | 0.468 | 0.816 | 0.626 | 0.811 | 0.427 | 0.372
SVQVDYMKTIL [GLYATL2_Y127] | 0.656 | 0.772 | 0.517 | 0.527 | 0.446 | 0.776 | 0.642 | 0.643 | 0.505 | 0.644 | 0.611 | 0.791 | 0.428 | 0.908 | 0.517 | 0.407
FRPHLYGTPSR [ADGRE2_Y670_S665F] | 1.65 | 1.98 | 1.77 | 0.481 | 0.572 | 0.842 | 0.718 | 0.511 | 0.747 | 0.945 | 0.458 | 0.611 | 0.513 | 0.682 | 0.948 | 0.546
PDGVEYLKNDP [GRIN3A_Y831] | 0.479 | 0.929 | 0.578 | 0.693 | 0.496 | 1.36 | 0.709 | 0.771 | 0.537 | 0.75 | 0.524 | 0.929 | 0.389 | 1.54 | 1 | 0.851
AGTIPYHAHLD [ASS1_Y291_L290P] | 0.772 | 0.838 | 0.554 | 0.395 | 0.377 | 0.645 | 0.474 | 0.435 | 0.458 | 0.357 | 0.369 | 0.447 | 0.456 | 0.507 | 0.484 | 0.415
QPGDIYHQTWA [GBA_Y244] | 0.352 | 0.626 | 0.439 | 0.825 | 3.42 | 0.963 | 2.9 | 2.69 | 3.42 | 1.3 | 0.88 | 0.938 | 2.84 | 0.989 | 3.66 | 3.11
RREWFYEVIIV [BACE1_Y260_YF] | 0.741 | 0.927 | 0.526 | 0.928 | 0.515 | 4.8 | 0.766 | 0.505 | 0.605 | 1.89 | 0.372 | 0.882 | 2.28 | 1.53 | 0.561 | 0.649
VVDVTYDDVPI [FLNB_Y1308_E1305D] | 0.866 | 0.822 | 0.518 | 2.21 | 1.05 | 1.27 | 0.801 | 0.697 | 0.506 | 3.96 | 1.23 | 0.951 | 0.511 | 1.38 | 1.3 | 1.04
ILGLEYSLRVP [HELZ2_Y1304] | 0.938 | 0.782 | 0.484 | 0.49 | 0.947 | 1.22 | 0.753 | 0.637 | 0.573 | 0.48 | 0.733 | 1.05 | 0.431 | 1.03 | 0.567 | 0.515
RQIQSYTCEID [DES_Y331_H326R] | 0.701 | 0.899 | 0.674 | 0.522 | 0.474 | 1.08 | 0.817 | 0.726 | 0.515 | 0.485 | 0.514 | 0.833 | 0.489 | 1.02 | 0.745 | 0.642

Now from value to sequence, other results behind:

SH2 binding enrichment (SHP2-C SH2) | SH2 binding enrichment (Grb2 SH2) | SH2 binding enrichment (c-Src SH2) | Sequence | phosphorylation enrichment (EPHB1) | phosphorylation enrichment (c-Src) | phosphorylation enrichment (Fes) | phosphorylation enrichment (c-Abl (mouse)) | phosphorylation enrichment (FGFR3) | phosphorylation enrichment (FGFR1) | phosphorylation enrichment (Fer (mouse)) | phosphorylation enrichment (EPHB2) | phosphorylation enrichment (Jak2) | phosphorylation enrichment (MERTK) | phosphorylation enrichment (AncSZ) | phosphorylation enrichment (Hck) | phosphorylation enrichment (Fyn)
0.25 | 0.578 | 0.396 | RRIHSYRGHVW [VHL_Y112_L116V] | 0.733 | 1.04 | 0.99 | 0.848 | 0.965 | 0.899 | 0.559 | 0.486 | 1.35 | 1.12 | 1.56 | 0.736 | 0.861
0.748 | 2.06 | 0.752 | PDGHEYIYVDP [PDGFRA_Y572] | 3.21 | 3.24 | 1.39 | 2.84 | 7.36 | 11.7 | 2.64 | 2.66 | 1.81 | 1.46 | 5.55 | 1.6 | 1.32
0.594 | 0.67 | 0.467 | AEMTGYVMTRW [MAPK13_Y182_V184M] | 0.656 | 0.397 | 1.23 | 0.709 | 0.885 | 0.653 | 0.537 | 0.578 | 1.11 | 0.364 | 1.29 | 0.561 | 0.493
0.694 | 0.959 | 0.719 | EKESCYILHSS [PATJ_Y783_E779K] | 0.531 | 0.595 | 1.09 | 0.707 | 0.77 | 0.572 | 0.623 | 0.519 | 0.936 | 0.533 | 1.28 | 0.497 | 0.549
0.861 | 0.695 | 0.419 | QSSEGYGLGDR [KIAA1210_Y564] | 0.731 | 1 | 1.06 | 1.27 | 0.677 | 0.538 | 0.871 | 0.754 | 1.14 | 0.847 | 1.03 | 0.989 | 0.842
0.919 | 1.04 | 0.535 | RGSQQYRALTV [TUBB8_Y281] | 0.368 | 0.594 | 0.633 | 0.84 | 0.364 | 0.428 | 0.584 | 0.518 | 0.77 | 0.516 | 0.862 | 0.866 | 0.325
0.831 | 0.85 | 0.432 | LEKISYVFMKR [SSX7_Y48_YF] | 1.65 | 0.581 | 2.51 | 0.811 | 1.42 | 0.969 | 0.879 | 1.21 | 1.72 | 0.538 | 1.9 | 1.14 | 0.963
0.769 | 0.761 | 0.535 | ASIVDYNIIGW [MYH7_Y588_G584S] | 0.742 | 0.514 | 1.22 | 0.92 | 0.865 | 0.948 | 0.59 | 0.528 | 0.947 | 0.498 | 1.11 | 0.605 | 0.45
0.678 | 0.972 | 0.466 | MARDIYQASFF [LTK_Y672_R673Q_YF] | 2.15 | 6.07 | 0.887 | 5.43 | 0.564 | 0.679 | 3.26 | 1.7 | 0.992 | 5.44 | 0.966 | 7.31 | 6.4
0.661 | 0.903 | 0.511 | MPVDGYISGLL [PAK6_Y81] | 0.447 | 0.487 | 0.953 | 0.622 | 0.626 | 0.583 | 0.522 | 0.59 | 0.817 | 0.41 | 0.716 | 0.441 | 0.524
0.803 | 0.92 | 0.58 | QNTGDDYDLYG [PTPN11_Y62_Y62D] | 0.985 | 1.99 | 1.56 | 0.841 | 1.51 | 0.82 | 0.674 | 1.63 | 1.9 | 0.697 | 2.09 | 1.86 | 1.35
1.09 | 0.769 | 0.613 | PSQRRNVFFFS [PTEN_Y174_Y174N_YF] | 0.559 | 0.591 | 1.23 | 0.817 | 0.777 | 1.07 | 0.493 | 0.342 | 0.54 | 0.571 | 1.31 | 1.41 | 0.924
0.464 | 0.85 | 0.536 | HLLRIYFDITD [MMP27_Y307_W304L_YF] | 1.53 | 0.791 | 2.46 | 1.87 | 1.68 | 0.874 | 0.846 | 0.891 | 2.05 | 0.568 | 1.99 | 0.733 | 0.491
0.456 | 0.915 | 0.733 | DSMQSYDLDYP [UNC13B_Y243] | 0.4 | 0.474 | 0.946 | 0.496 | 0.673 | 0.665 | 0.451 | 0.552 | 1.45 | 0.405 | 1.3 | 0.474 | 0.466
1.02 | 0.618 | 0.772 | PKSWNYELPAT [PROM1_Y34_A31S] | 1.67 | 0.448 | 1.45 | 0.605 | 1.65 | 1.39 | 1.06 | 1.67 | 0.658 | 1.07 | 2.37 | 1.26 | 1.13
